The assay deals with T1, epithelial cell adhesion molecule (EpCAM) on EpCAM-expressing MCF-7 cells (human, UniProt P16422 24-314).
T1 construct: whole, on cells; also called cellular EpCAM; EpCAM+ MCF-7 cells
T1 sequence (looked up): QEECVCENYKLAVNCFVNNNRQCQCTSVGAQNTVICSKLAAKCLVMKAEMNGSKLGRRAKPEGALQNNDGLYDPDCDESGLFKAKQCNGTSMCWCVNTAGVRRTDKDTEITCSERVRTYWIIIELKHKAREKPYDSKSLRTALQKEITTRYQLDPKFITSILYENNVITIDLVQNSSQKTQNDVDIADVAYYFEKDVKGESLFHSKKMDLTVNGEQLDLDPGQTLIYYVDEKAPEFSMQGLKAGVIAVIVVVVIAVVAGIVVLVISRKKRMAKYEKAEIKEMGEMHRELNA
Nature of the assay: flow cytometry on EpCAM+ MCF-7 cells. (In general: Flow cytometry measures light scatter and fluorescence of single cells or particles in a stream.)

B1: CSANs displaying only the non-binding control domain (1DD-FnNT-v4) (designed binder)
chain: MGEQKLISEEDLGGSGGGSGGGISLIAALAVDRVIGMENAMPWNLPADLAWFKRNTLNKPVIMGRHTWESIGRPLPGRKNIILSSQPGTDDRVTWVKSVDEAIAAAGDVPEIMVIGGGRVYEQFLPKAQKLYLTHIDAEVEGDTHFPDYEPDDWESVFSEFHDADAQNSHSYSFEILERRGGISLIAALAVDRVIGMENAMPWNLPADLAWFKRNTLNKPVIMGRHTWESIGRPLPGRKNIILSSQPGTDDRVTWVKSVDEAIAAAGDVPEIMVIGGGRVYEQFLPKAQKLYLTHIDAEVEGDTHFPDYEPDDWESVFSEFHDADAQNSHSYSFEILERRGELGGSGGGGSGGGGSGGGGSGGGGSGGGGSGGGGSGGGGSGGGGSGGASSSDSPRNLEVTNATPNSLTISWDAPAVTVRYYRITYGETGGNSPSQEFTVPGSKSTATISGLKPGQDYTITVYAVTGRDGSPASSKPISINYRTEIDKPSQGSHHHHHH
notes: Nanoring oligomerized with bis-methotrexate; control; also called 1DD-FnNT-v4 CSANs
For B1, the binding result is “no binding”.

Values taken from US20180251524A1 (REGENTS OF THE UNIVERSITY OF MINNESOTA, published 2018).
